Measured values: the nanobody polyreactivity screen of Harvey et al. (2022)

Assay: yeast display, Sf9 membrane polyspecificity reagent, FACS + sequencing; frameworks hold sequencing errors
How it was run: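 After 36–48 hours of galactose induction, yeast (Saccharomyces cerevisiae BJ5465) displaying a synthetic nanobody library were stained at 4 °C for 1 hour with 10% biotinylated, detergent-solubilized Sf9 membrane reagent. Streptavidin microbeads enriched the stained cells before FACS sorting into low and high (top ~1%) gates on anti-HA and streptavidin fluorescence. Each clone's polyreactivity label reflects its gate of origin.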

| Sequence | polyreactivity (PSR sort gate) |
| --- | --- |
| QVQLVESGGGLVQAGGSLRLSCAASGFTFVPYARGWYRQAPGKDREWVAAISRRGGSTYYADSVKGRFTISRDYAKNTVYLQMNSLKPEDTAVYYCAKDGPGGGTRIYDYWGQGTQVTVSS | high polyreactivity |
| QLQLVESGGGLVQAGGSLRLSCAAAGSTFRLYAMGWYRPAPGKERKLVAAISGRGDRTYYADSVKGRFTISRDNAKNAVYLQMISLKPEDTAVYSCAAKSGFIPYDYWGQGTQVTVSS | high polyreactivity |
| QVQLVESGGGLVQAGGSLRLSCAASGFTFRANAMGWYRQAPGKERELVAVITGSGGRTYYADSVKGRFTISRDNAKNTVYLQMNSLKPEDTAVYYCNASGRKTNPYDYWGQGTQVTVSS | high polyreactivity |
| QVQLVESGGGLVQAGGSLRLSCAASGFTFVRYAMGWYTQAPGKERELDAAITRGGGSTYYADSVKGRFTISRDYAKNTVYLQMNSLKPEDTAVYYCAKGPGRPVSYEIPYKYNYWGQGTHVTVSS | high polyreactivity |
| QVQLVESGGGLVQAGGSLRLSCAASGRIFYHYPMGWYRQAPGKEREFVAAISLRAGSTYYADSVKGRFTISRYNAKNNVYLQMNSLKPEDTAFYYCAARRASYVTSRYDYWGQGTQVTVSS | high polyreactivity |
| QVQLVESGGGLVQAGGSLRLSCAASGFIFGGNAMGWYRQAPGKERELVAAISKSGGRTYYADSVKGRFTISRDNAKNTVYLQMNSLKPEDTAVYYCAAVPGRTAEDYGEDYWGQGTQVTVSS | high polyreactivity |
| QVQLVESGGGLVQAGGSLRLSCAASGRIFLWYAMGWYRQAPGKERELVAAIWRGGSTYYADSVKGRFTISRDNAKNTVYLQMNSLKPEDTAVYYCNAQRAPHWYYLFDYWGQGTQVTVSS | low polyreactivity |
| QVQLVESGGGLVQAGGSLRLSCAASGSISSSYAMGWYRQAPGKERELVAAIDGSDGTTYYADSVKGRYTISRDNAKNTVYLQMNSLKPEDTAFYYCAAEPLGYHAGATRYDYWGQGTQVTVSS | high polyreactivity |
| QVQLVESAGGLVQAGGSLSLSCAASGLTFPWYAMGWYRQAPGKERELVAAISSSSGSTYYADSVKGRFTISRDNAKNTVYLQMNSLKPEDTAVYYCAAGYPGGHYDYWGQGTQVTVSS | high polyreactivity |
| QVQRVESGGGLVQAGGSLRLSCAASGFIISWYAMGWSRQAPGKERELVAAISSGGSTTYADSVKGRFTISRDNAKNTVSLQMNSLKPEDTAVYYCNADQVYGYNYWGQGTQVTVSS | high polyreactivity |
| QVQLVESGAGLVQAGGSLRLSCAASGRILHEYAMGWYRQAPGKERELVAAITFSGTSTYYADSVKGRFTISRDNAKNSVYLQMNSLKPEDTAVYYCAADTYGGSRDYWGQGTQVTVSS | low polyreactivity |
| QVQLVESGGGLVQAGGSLRLSCAASGSTLTRNDMGWYRQAPGKERELVAAITFSGSDTYYADSVKGRFTISRDNANNTVYLQMNSLKPEDTAVYYCAAEYGGYEYDQWGQGTQVTVSS | low polyreactivity |
| QVQLVESGGGLVQAGGSLRLSCAASGSIFYGYTMGWYRQEPGKERELVAAIRKSGGSTNYADSVKGRFTISRDNAKNTVYLQMNSLKPEDTAVFYCAAAYYRGRGYYWGQGTQVTESS | high polyreactivity |
| QVQLVESGGGLVQAGGSLRLSCAASGRIFWYNAMGWYRQAPGKERELVAVITSGTSTYYADSVKGRFTISRDNAKNTVYVHMNSLKPDDTAVYYCAARYLSRYSERHYYDWGQGTQVTVSS | high polyreactivity |
| QVQLVESGGGLVQAGGSLRLSCAASGSIFRIYAMGWYRQAPGKERELVAAISFSTGSRTYYADSVKGRFTISRDNAKNTVYLQMNSLKPEDTAVYYCNAESYYDYNYWGQGNQVTVSS | low polyreactivity |
| QVQLVESGGGLVQEGGSLRLSCAASGRIFGTNAMGWYRQAPGKERELVAAISRSGGSTYYADSVKGRFTISRDNAKNTVYLQMNSLKPEDTAVYYCATDGRHTYYYWGQGTQVTVSS | high polyreactivity |

| Sequence | polyreactivity (PSR sort gate) |
| --- | --- |
| QVQLVESGGGLVQAGGSLRLSCAASGLTFRYYSMGWYSQAPGKERELVASISWSGASTYYADSVKGRFTISRDNAKNTVYLQMNSLKPEDTGVYYCNAGYYGSYDYWGQGTQVTVSS | high polyreactivity |
| QVQLVESGGGLVQAGRSLRLSCAASGSILGTYAMGWYRQAPGKERELVAAISSSGRTSYADSVKGRFTISRDNAKNTVYLQMNSLKPEDTAVYYCNASNYIVLINDPDAAPWLYDYWGQGTQVTVSS | low polyreactivity |
| QVQLVESGGGLVQAGGSLRLSCAASGNIFDGYAMGWYRQAPGKEREMVAAITSSAGSTYYADSVKGRFTISRDNAKNTVYLQMNSLKPEDTAVYYCNKVTKYRPIEGSWGQGTQVTVSS | high polyreactivity |
| QVQLVESGGGLVQAGGSLRLSCAASGSICDDYAMGWYRQAPGKEWELVAAISSSGTSTYYADSVKGRFTISRDNAMYTVYLQMNSLKPEDTAVYYCSARSAILISGYLMDYWGQGTQVTVSS | low polyreactivity |
| QVQLVESGGGLVQAGGSLRLSCAASGGTILYYAMGWYRQAPGKEMELVAAISRGGSTHYADSVKWRFTISRDNAKNTVYLQMNRLKPEDTAVFYCAVDGGEFSSYGYWGHGTQVTVSS | low polyreactivity |
| QVQLVESGGGLFQAGGSLRLSCAASGSPFSSYAIGWYRQAPGKERELVAAISYRGTRTRYADSVKGRFTISRDNAKNTVYLQMNSLKPEDTAVYDCAADRTFYGIRFDYWGQGTQVTVSS | low polyreactivity |
| QVQLVESGGGLVQAGGSLRLSCAASGSIFPANVMGWYRQAPGKERELVAVISSSGGRTFYADSVKGRFTISRDNAKNTVYLQMNSLKPEDTAVYYCAATIYDYNRGRKYYYWGQGNQVTVSS | high polyreactivity |
| QVQLVESGGGLVQAGGSLRLSCAASGSTFYDYAMGWYRQAPGKERELVASISISGGSTYADSVKRRFTISRDNAKNTVYLQMNSLKPEDTAVYYCNAKNYSWDDYDWVPDYEYWGQGTQVTVSS | low polyreactivity |
| QVQLVESVGGLVQAGGSLRLSCAASGSTFSSNAMGWYRQAPGKERELVAAINRTGNTYYADSVKGRFTISRDNAKNTVYLQMNSLKPEDTAVYYCNTDLNLYRGGGYWGQGTQVTVSS | low polyreactivity |
| QVQLVESAGGLVQAGGSLRLSCAASGSTFVTYDMGWYRQAPGKERELVAAIRYSDGSTYYADSVKGRFTISRDNAKNTVYRQMNSLKPEDTAVYYCAADLGNYDYYGYVRYDYWGQGTQVTVSS | low polyreactivity |
| QVQLVESGGGLVQAGGSLRLSCAASGITFELNTMGWYRQAPGKEMELVAVITQNGGSTYYADSVKGRFTISRDNAKNTVYLQMNSLKPEDTAVYYCAATYVWSYLYLIRFYYWGQGTQVTVSS | high polyreactivity |
| QVQLVESGGGLVQAGGSLRLSCAASGFIFPGYAMGWYRQAPGKERELVAAISWSGGRTYYADSVKGRFTISRDNAKNTVYLQMNSLKPEDTAVYYCNARYRQITYEYDYWGQGTQVTVSS | high polyreactivity |
| QVQLVESGGGLVQAGGSLRLSCAASGRTFVYYDMGWYRQAPGKERELVASINWSGGSTYYADSVKGRFTISRDNAKNTVYLQMNSLKPEDTAVYYCAKEEITEWGVDSWGQGTQVTVSS | low polyreactivity |
| QVQHVESGGGLVQAGGSLRLSCAASGRIFGRNNMGWYRQAPGKERELVAAISSSGGSTRYADSVKGRFTISRDNAKNTVYLQMNSLKPEDTGVYYCAARRAYYYEGGYDYWGQGTQVTVSS | high polyreactivity |
| QVQLVESGGGLVQAGGSLRLSCAASGRIFNLYAMGWYRQAPGKERELVAAISWGGGRTYYADSVKGRFTISRDNAKNTVYLQMNSLKPEDTAVYYCNAVYSPRYYVGGYDYWGQGTQVTVSS | high polyreactivity |
| QVQLVESGGGLVQAGGSLRLSCAASGFISYFYTMGWYRPAPGKERELVAAISNTGDRTYYADSVKGRFTISRDNAKNTVYLQMNSLKPEDTAVYYCNAVVRGTYWQSFDYWGQGTQVTVSS | high polyreactivity |
